This is an account of results in patent publication US20170355744A1 (published 2017).

Where “and” joins values, the source holds several entries; their conditions need not be identical. Identical values can stand only once. Like-named read-outs stand apart in the source and are kept apart here.

The target in experiment [1] is T1, fragment of the IGFIIR involved with IGF-II binding (domains 10-13, named protein 1288) (UniProt P11717 1367-1989).
T1 construct: domain: domains 10-13; Coated on the plate at 0.5 ug/well; also called IGF2R
T1 sequence (P11717 1367-1989 limits assumed): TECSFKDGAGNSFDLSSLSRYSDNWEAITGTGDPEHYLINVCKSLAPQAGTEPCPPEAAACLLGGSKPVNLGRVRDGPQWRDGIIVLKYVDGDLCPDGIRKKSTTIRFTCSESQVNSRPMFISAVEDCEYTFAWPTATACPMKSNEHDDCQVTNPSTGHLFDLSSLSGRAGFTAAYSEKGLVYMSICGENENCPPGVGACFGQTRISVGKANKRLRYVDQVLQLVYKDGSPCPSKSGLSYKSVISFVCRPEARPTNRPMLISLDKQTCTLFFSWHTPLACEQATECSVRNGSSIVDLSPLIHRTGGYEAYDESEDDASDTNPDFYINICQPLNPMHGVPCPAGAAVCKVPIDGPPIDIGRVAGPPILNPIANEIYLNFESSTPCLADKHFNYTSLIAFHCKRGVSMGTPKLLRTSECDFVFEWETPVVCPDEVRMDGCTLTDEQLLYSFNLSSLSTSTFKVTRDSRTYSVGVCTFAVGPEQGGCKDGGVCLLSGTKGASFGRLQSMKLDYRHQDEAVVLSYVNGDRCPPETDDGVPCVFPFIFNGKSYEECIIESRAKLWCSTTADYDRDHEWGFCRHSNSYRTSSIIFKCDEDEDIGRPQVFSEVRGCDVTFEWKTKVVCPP
The experiment in a line: IGF2R competitive binding assay, displacement of 8 nM biotinylated IGF-II from plate-coated IGFIIR domains 10-13. On the procedure:
To measure the ability of the Naglu fusion protein constructs to bind to the IGF-II receptor a competitive binding assay is carried out. A fragment of the IGFIIR involved with IGF-II binding (domains 10-13, named protein 1288) is coated onto 96-well plates. Biotinylated IGF-II is incubated with the receptor in the presence of increasing amounts of competitors: either control IGF-II (non-biotinylated), or fusion protein sample (containing an IGF-II-derived GILT epitope tag). Receptor-bound biotinylated IGF-II is detected with streptavidin conjugated to horseradish peroxidase (HRP) and a chemiluminescent HRP substrate. The ability of the fusion protein to inhibit binding of biotinylated IGF-II to the IGFIIR is calculated from inhibition curves and reported as an IC₅₀ value (concentration required to achieve 50% binding inhibition).
For the assay, IGFIIR is coated in a white Reacti-bind plate (Pierce, Cat#437111) at 0.5 μg/well in a volume of 100 μl (69.6 nM/per well) in coating buffer. The plate is sealed and incubated overnight at room temperature. The plate is then washed 3× with wash buffer, blocked with blocking buffer and then washed again 3× with wash buffer (300 μl/well).

Experiment [2] concerns the target T2, CI-MPR receptor on human MPS IIIB fibroblasts (human), P11717. The experiment can be described thus: cell-based or functional assay.
For experiment [3], the target named is T2, CI-MPR receptor on human MPS IIIB …. The experiment in a line: cell-based or functional assay. This is another data set of the same source.

T2 sequence (P11717 41-2491): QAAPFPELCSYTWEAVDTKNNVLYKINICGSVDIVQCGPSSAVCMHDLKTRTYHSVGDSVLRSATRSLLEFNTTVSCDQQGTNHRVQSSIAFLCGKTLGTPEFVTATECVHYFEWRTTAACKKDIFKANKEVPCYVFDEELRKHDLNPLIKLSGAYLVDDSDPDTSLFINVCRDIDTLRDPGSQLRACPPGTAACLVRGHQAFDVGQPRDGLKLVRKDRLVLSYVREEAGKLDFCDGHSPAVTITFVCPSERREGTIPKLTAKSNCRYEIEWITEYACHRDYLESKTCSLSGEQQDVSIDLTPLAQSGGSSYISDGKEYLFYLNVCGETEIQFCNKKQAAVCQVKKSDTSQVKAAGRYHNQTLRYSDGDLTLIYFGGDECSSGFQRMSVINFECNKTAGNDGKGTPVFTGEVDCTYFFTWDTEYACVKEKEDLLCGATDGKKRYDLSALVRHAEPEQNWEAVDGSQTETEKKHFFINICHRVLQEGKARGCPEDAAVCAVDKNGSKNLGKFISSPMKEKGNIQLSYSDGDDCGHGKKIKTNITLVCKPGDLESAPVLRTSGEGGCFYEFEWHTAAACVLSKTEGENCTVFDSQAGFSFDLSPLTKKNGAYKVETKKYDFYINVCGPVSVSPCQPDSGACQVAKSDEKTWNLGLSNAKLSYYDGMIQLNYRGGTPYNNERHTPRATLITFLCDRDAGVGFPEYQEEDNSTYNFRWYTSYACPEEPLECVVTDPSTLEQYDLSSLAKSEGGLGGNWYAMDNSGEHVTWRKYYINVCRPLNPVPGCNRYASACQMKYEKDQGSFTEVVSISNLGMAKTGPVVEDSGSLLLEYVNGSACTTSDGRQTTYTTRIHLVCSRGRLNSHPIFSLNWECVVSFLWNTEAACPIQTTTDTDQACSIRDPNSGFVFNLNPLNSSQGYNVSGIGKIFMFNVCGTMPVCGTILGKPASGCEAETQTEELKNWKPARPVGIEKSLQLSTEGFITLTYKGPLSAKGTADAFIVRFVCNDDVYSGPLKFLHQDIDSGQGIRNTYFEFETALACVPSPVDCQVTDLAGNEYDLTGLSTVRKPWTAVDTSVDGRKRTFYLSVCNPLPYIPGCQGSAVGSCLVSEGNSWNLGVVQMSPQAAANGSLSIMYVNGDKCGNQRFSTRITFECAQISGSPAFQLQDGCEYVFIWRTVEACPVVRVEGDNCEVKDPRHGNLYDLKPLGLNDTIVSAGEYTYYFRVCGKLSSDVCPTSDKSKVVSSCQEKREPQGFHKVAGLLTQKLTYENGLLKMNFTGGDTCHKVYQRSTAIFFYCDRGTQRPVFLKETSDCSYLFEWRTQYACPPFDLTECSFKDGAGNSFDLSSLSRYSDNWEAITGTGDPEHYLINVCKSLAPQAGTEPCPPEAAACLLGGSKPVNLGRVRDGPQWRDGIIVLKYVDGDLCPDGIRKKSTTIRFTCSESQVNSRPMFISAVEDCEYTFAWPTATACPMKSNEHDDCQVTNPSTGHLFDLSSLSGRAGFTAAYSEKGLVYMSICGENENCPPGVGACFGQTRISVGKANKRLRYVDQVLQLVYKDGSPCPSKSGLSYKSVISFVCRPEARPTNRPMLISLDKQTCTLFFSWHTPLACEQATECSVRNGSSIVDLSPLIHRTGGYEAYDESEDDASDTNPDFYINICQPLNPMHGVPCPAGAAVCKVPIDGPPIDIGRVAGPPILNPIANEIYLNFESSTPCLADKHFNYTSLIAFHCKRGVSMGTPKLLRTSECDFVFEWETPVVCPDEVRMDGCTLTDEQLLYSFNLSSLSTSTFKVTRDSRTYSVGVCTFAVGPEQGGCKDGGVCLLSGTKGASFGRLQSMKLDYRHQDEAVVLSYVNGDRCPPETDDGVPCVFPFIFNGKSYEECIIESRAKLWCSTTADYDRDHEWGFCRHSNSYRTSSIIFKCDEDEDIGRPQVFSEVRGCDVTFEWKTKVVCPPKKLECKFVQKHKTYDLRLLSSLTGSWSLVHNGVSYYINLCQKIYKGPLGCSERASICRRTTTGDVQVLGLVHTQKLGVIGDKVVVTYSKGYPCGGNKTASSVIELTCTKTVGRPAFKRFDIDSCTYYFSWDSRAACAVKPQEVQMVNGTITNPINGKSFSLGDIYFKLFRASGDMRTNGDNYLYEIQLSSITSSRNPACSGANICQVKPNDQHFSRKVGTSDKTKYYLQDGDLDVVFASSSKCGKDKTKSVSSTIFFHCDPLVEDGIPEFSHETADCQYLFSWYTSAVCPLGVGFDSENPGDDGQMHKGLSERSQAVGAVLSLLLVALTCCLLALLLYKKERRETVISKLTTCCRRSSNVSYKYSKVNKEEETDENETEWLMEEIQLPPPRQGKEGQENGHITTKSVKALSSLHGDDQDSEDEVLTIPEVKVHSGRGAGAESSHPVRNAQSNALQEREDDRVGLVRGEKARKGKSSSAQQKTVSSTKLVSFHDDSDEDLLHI

B1: Naglu-XTEN-IGF-II (SEQ ID NO: 565) (enzyme)
chain: DEAREAAAVRALVARLLGPGPAADFSVSVERALAAKPGLDTYSLGGGGAARVRVRGSTGVAAAAGLHRYLRDFCGCHVAWSGSQLRLPRPLPAVPGELTEATPNRYRYYQNVCTQSYSFVWWDWARWEREIDWMALNGINLALAWSGQEAIWQRVYLALGLTQAEINEFFTGPAFLAWGRMGNLHTWDGPLPPSWHIKQLYLQHRVLDQMRSFGMTPVLPAFAGHVPEAVTRVFPQVNVTKMGSWGHFNCSYSCSFLLAPEDPIFPIIGSLFLRELIKEFGTDHIYGADTFNEMQPPSSEPSYLAAATTAVYEAMTAVDTEAVWLLQGWLFQHQPQFWGPAQIRAVLGAVPRGRLLVLDLFAESQPVYTRTASFQGQPFIWCMLHNFGGNHGLFGALEAVNGGPEAARLFPNSTMVGTGMAPEGISQNEVVYSLMAELGWRKDPVPDLAAWVTSFAARRYGVSHPDAGAAWRLLLRSVYNCSGEACRGHNRSPLVRRPSLQMNTSIWYNRSDVFEAWRLLLTSAPSLATSPAFRYDLLDLTRQAVQELVSLYYEEARSAYLSKELASLLRAGGVLAYELLPALDEVLASDSRFLLGSWLEQARAAAVSEAEADFYEQNSRYQLTLWGPEGNILDYANKQLAGLVANYYTPRWRLFLEALVDSVAQGIPFQQHQFDKNVFQLEQAFVLSKQRYPSQPRGDTVDLAKKIFLKYYPRWVAGSWGAPGGSPAGSPTSTEEGTSESATPESGPGTSTEPSEGSAPGSPAGSPTSTGPSGAPLCGGELVDTLQFVCGDRGFYFSRPASRVSARSRGIVEECCFRSCDLALLETYCATPAKSE
notes: also called Naglu fusion protein
In turn, B1 had an IC50 in experiment [1] of 0.24 nM. The Kuptake in experiment [2] stood at 3.7 nM.

B2: Naglu-Rigid-IGF-II (SEQ ID NO: 566) (enzyme)
chain: DEAREAAAVRALVARLLGPGPAADFSVSVERALAAKPGLDTYSLGGGGAARVRVRGSTGVAAAAGLHRYLRDFCGCHVAWSGSQLRLPRPLPAVPGELTEATPNRYRYYQNVCTQSYSFVWWDWARWEREIDWMALNGINLALAWSGQEAIWQRVYLALGLTQAEINEFFTGPAFLAWGRMGNLHTWDGPLPPSWHIKQLYLQHRVLDQMRSFGMTPVLPAFAGHVPEAVTRVFPQVNVTKMGSWGHFNCSYSCSFLLAPEDPIFPIIGSLFLRELIKEFGTDHIYGADTFNEMQPPSSEPSYLAAATTAVYEAMTAVDTEAVWLLQGWLFQHQPQFWGPAQIRAVLGAVPRGRLLVLDLFAESQPVYTRTASFQGQPFIWCMLHNFGGNHGLFGALEAVNGGPEAARLFPNSTMVGTGMAPEGISQNEVVYSLMAELGWRKDPVPDLAAWVTSFAARRYGVSHPDAGAAWRLLLRSVYNCSGEACRGHNRSPLVRRPSLQMNTSIWYNRSDVFEAWRLLLTSAPSLATSPAFRYDLLDLTRQAVQELVSLYYEEARSAYLSKELASLLRAGGVLAYELLPALDEVLASDSRFLLGSWLEQARAAAVSEAEADFYEQNSRYQLTLWGPEGNILDYANKQLAGLVANYYTPRWRLFLEALVDSVAQGIPFQQHQFDKNVFQLEQAFVLSKQRYPSQPRGDTVDLAKKIFLKYYPRWVAGSWGAPGGGSPAPAPTPAPAPTPAPAGGGPSGAPLCGGELVDTLQFVCGDRGFYFSRPASRVSARSRGIVEECCFRSCDLALLETYCATPAKSE
notes: as for B1
In turn, B2 gave an IC50 in experiment [1] of 0.23 nM. In experiment [2], the Kuptake came to 2.4 nM.

B3: Naglu-Helical-IGF-II (SEQ ID NO: 567) (enzyme)
chain: DEAREAAAVRALVARLLGPGPAADFSVSVERALAAKPGLDTYSLGGGGAARVRVRGSTGVAAAAGLHRYLRDFCGCHVAWSGSQLRLPRPLPAVPGELTEATPNRYRYYQNVCTQSYSFVWWDWARWEREIDWMALNGINLALAWSGQEAIWQRVYLALGLTQAEINEFFTGPAFLAWGRMGNLHTWDGPLPPSWHIKQLYLQHRVLDQMRSFGMTPVLPAFAGHVPEAVTRVFPQVNVTKMGSWGHFNCSYSCSFLLAPEDPIFPIIGSLFLRELIKEFGTDHIYGADTFNEMQPPSSEPSYLAAATTAVYEAMTAVDTEAVWLLQGWLFQHQPQFWGPAQIRAVLGAVPRGRLLVLDLFAESQPVYTRTASFQGQPFIWCMLHNFGGNHGLFGALEAVNGGPEAARLFPNSTMVGTGMAPEGISQNEVVYSLMAELGWRKDPVPDLAAWVTSFAARRYGVSHPDAGAAWRLLLRSVYNCSGEACRGHNRSPLVRRPSLQMNTSIWYNRSDVFEAWRLLLTSAPSLATSPAFRYDLLDLTRQAVQELVSLYYEEARSAYLSKELASLLRAGGVLAYELLPALDEVLASDSRFLLGSWLEQARAAAVSEAEADFYEQNSRYQLTLWGPEGNILDYANKQLAGLVANYYTPRWRLFLEALVDSVAQGIPFQQHQFDKNVFQLEQAFVLSKQRYPSQPRGDTVDLAKKIFLKYYPRWVAGSWGAPGGGSPAEAAAKEAAAKEAAAKEAAAKEAAAKAPSGGGGAPLCGGELVDTLQFVCGDRGFYFSRPASRVSARSRGIVEECCFRSCDLALLETYCATPAKSE
notes: as for B1
B3 displayed an IC50 in experiment [1] of 0.25 nM. In experiment [2], this molecule yielded a Kuptake of 2.3 nM.

B4: Naglu-(GGGGS)4GGGPS-IGF-II (SEQ ID NO: 568) (enzyme)
chain: DEAREAAAVRALVARLLGPGPAADFSVSVERALAAKPGLDTYSLGGGGAARVRVRGSTGVAAAAGLHRYLRDFCGCHVAWSGSQLRLPRPLPAVPGELTEATPNRYRYYQNVCTQSYSFVWWDWARWEREIDWMALNGINLALAWSGQEAIWQRVYLALGLTQAEINEFFTGPAFLAWGRMGNLHTWDGPLPPSWHIKQLYLQHRVLDQMRSFGMTPVLPAFAGHVPEAVTRVFPQVNVTKMGSWGHFNCSYSCSFLLAPEDPIFPIIGSLFLRELIKEFGTDHIYGADTFNEMQPPSSEPSYLAAATTAVYEAMTAVDTEAVWLLQGWLFQHQPQFWGPAQIRAVLGAVPRGRLLVLDLFAESQPVYTRTASFQGQPFIWCMLHNFGGNHGLFGALEAVNGGPEAARLFPNSTMVGTGMAPEGISQNEVVYSLMAELGWRKDPVPDLAAWVTSFAARRYGVSHPDAGAAWRLLLRSVYNCSGEACRGHNRSPLVRRPSLQMNTSIWYNRSDVFEAWRLLLTSAPSLATSPAFRYDLLDLTRQAVQELVSLYYEEARSAYLSKELASLLRAGGVLAYELLPALDEVLASDSRFLLGSWLEQARAAAVSEAEADFYEQNSRYQLTLWGPEGNILDYANKQLAGLVANYYTPRWRLFLEALVDSVAQGIPFQQHQFDKNVFQLEQAFVLSKQRYPSQPRGDTVDLAKKIFLKYYPRWVAGSWGGGGSGGGGSGGGGSGGGGSGGGPSLCGGELVDTLQFVCGDRGFYFSRPASRVSARSRGIVEECCFRSCDLALLETYCATPAKSE
notes: The construct encodes full-length Naglu 1-743 with its signal peptide; also called Naglu fusion protein; GILT-tagged Naglu-IGF-II fusion protein
With B4, the 50% inhibitory concentration (IC50) in experiment [1] is 0.27 nM and 0.23 nM. Moreover, the Kuptake is 7 to 9 nM in experiment [3] and 5.4 nM in experiment [2].

B5: Naglu-(GGGGA)4GGGPS-IGF-II (SEQ ID NO: 569) (enzyme)
chain: DEAREAAAVRALVARLLGPGPAADFSVSVERALAAKPGLDTYSLGGGGAARVRVRGSTGVAAAAGLHRYLRDFCGCHVAWSGSQLRLPRPLPAVPGELTEATPNRYRYYQNVCTQSYSFVWWDWARWEREIDWMALNGINLALAWSGQEAIWQRVYLALGLTQAEINEFFTGPAFLAWGRMGNLHTWDGPLPPSWHIKQLYLQHRVLDQMRSFGMTPVLPAFAGHVPEAVTRVFPQVNVTKMGSWGHFNCSYSCSFLLAPEDPIFPIIGSLFLRELIKEFGTDHIYGADTFNEMQPPSSEPSYLAAATTAVYEAMTAVDTEAVWLLQGWLFQHQPQFWGPAQIRAVLGAVPRGRLLVLDLFAESQPVYTRTASFQGQPFIWCMLHNFGGNHGLFGALEAVNGGPEAARLFPNSTMVGTGMAPEGISQNEVVYSLMAELGWRKDPVPDLAAWVTSFAARRYGVSHPDAGAAWRLLLRSVYNCSGEACRGHNRSPLVRRPSLQMNTSIWYNRSDVFEAWRLLLTSAPSLATSPAFRYDLLDLTRQAVQELVSLYYEEARSAYLSKELASLLRAGGVLAYELLPALDEVLASDSRFLLGSWLEQARAAAVSEAEADFYEQNSRYQLTLWGPEGNILDYANKQLAGLVANYYTPRWRLFLEALVDSVAQGIPFQQHQFDKNVFQLEQAFVLSKQRYPSQPRGDTVDLAKKIFLKYYPRWVAGSWGGGGAGGGGAGGGGAGGGGAGGGPSLCGGELVDTLQFVCGDRGFYFSRPASRVSARSRGIVEECCFRSCDLALLETYCATPAKSE
notes: as for B1
In experiment [1], B5 had an IC50 of 0.36 nM. The molecule further showed a Kuptake in experiment [2] of 6.3 nM.
